Measured values reported in article PMC4095729.

Molecular target: biotinylated DAE10 peptide (Aβ1-10 conjugated to biotin at the carboxy-terminus)
Assay: SPR; BIAcore; biotinylated DAE10 peptide (Aβ1-10) immobilised on streptavidin coated chips at low density (4 to 7 RU); whole antibodies injected in triplicate at 100 nM, 30 μl/minute; apparent rate constants, bivalent model, KD corrected for active concentration of antibody

Kd [nM] | koff [s⁻¹] | kon [M⁻¹ s⁻¹] | Substance
1.2 | 0.000412 | 361000 | Murine 3D6 (whole antibody, IgG2b)
1.8 | 0.000589 | 343000 | Recombinant chimeric 3D6 (IgG1) (antibody)
